What was measured:
Assay in all cases: cell-based or functional assay
[1] = target: HIV-1 Env of pseudovirus NIH-072_R3265.c06 (HIV-1)
[2] = target: HIV-1 Env of NIH-045_7030102001E5(Rev.) (HIV-1)
[3] = target: HIV-1 Env of NIH-066_191084 B7.19 (HIV-1)
[4] = target: HIV-1 Env of pseudovirus NIH-004_PVO.4 (HIV-1)
[5] = target: HIV-1 Env of NIH-081_BJOX028000.10.3 (HIV-1)
[6] = target: HIV-1 Env of pseudovirus NIH-051_CNE17 (HIV-1)
[7] = target: HIV-1 Env of NIH-029_HIV-001428.2.42 (HIV-1)
[8] = target: HIV-1 Env of pseudovirus NIH-052_CNE30 (HIV-1)
[9] = target: HIV-1 Env of pseudovirus NAC_SS1196.1 (HIV-1)
[10] = target: HIV-1 Env of NIH-040_Ce703010054 2A2 (HIV-1)
[11] = target: HIV-1 Env of pseudovirus NIH-013_6240.08.TA5.4622 (HIV-1)
[12] = target: HIV-1 Env of pseudovirus NIH-032_HIV-16845.2.22 (HIV-1)
[13] = target: HIV-1 Env of NIH-027_CAP45.G3 (HIV-1)
[14] = target: HIV-1 Env of NIH-094_3817.v2.c59 (HIV-1)
[15] = target: HIV-1 Env of NIH-036_Ce2010 F5 (HIV-1)
[16] = target: HIV-1 Env of pseudovirus NIH-090_A07412M1.vrc12 (clade D) (HIV-1)
[17] = target: HIV-1 Env of pseudovirus NIH-108_T235.47 (HIV-1)
[18] = target: HIV-1 Env of pseudovirus NIH-064_0260.v5.c1 (HIV-1)
[19] = target: HIV-1 Env of NIH-078_BJOX015000.11.5 (HIV-1)
[20] = target: HIV-1 Env of NIH-069_C1080.c03 (HIV-1)
[21] = target: HIV-1 Env of NIH-064_0260.v5.c1 (HIV-1)
[22] = target: HIV-1 Env of pseudovirus NIH-106_T250.4 (HIV-1)
[23] = target: HIV-1 Env of NAC_HxB2 (HIV-1) (UniProt P04578)
[24] = target: HIV-1 Env of pseudovirus NIH-095_6480.v4.c25 (HIV-1)
[25] = target: HIV-1 Env of NIH-102_6545.v4.c1 (HIV-1)
[26] = target: HIV-1 Env of pseudovirus NAC_YU2 (HIV-1) (UniProt P35961)
[27] = target: HIV-1 Env of pseudovirus NIH-099_3301.v1.c24 (HIV-1)
[28] = target: HIV-1 Env of NIH-047_Ce704809221 1B3 (HIV-1)
[29] = target: HIV-1 Env of pseudovirus NIH-026_ZM135M.PL10a (HIV-1)
[30] = target: HIV-1 Env of pseudovirus NIH-035_Ce1176 A3 (HIV-1)
[31] = target: HIV-1 Env of NIH-023_ZM249M.PL1 (HIV-1)
[32] = target: HIV-1 Env of pseudovirus NIH-049_CNE20 (HIV-1)
[33] = target: HIV-1 Env of NIH-073_C3347.c11 (HIV-1)
[34] = target: HIV-1 Env of pseudovirus NIH-015_62357.14.D3.4589 (HIV-1)
[35] = target: HIV-1 Env of pseudovirus NIH-074_C4118.c09 (HIV-1)
[36] = target: HIV-1 Env of pseudovirus NIH-089_3016.v5.c45 (clade D) (HIV-1)
[37] = target: HIV-1 Env of pseudovirus NIH-076_CNE5 (HIV-1)
[38] = target: HIV-1 Env of pseudovirus NIH-041_BF1266.431a (HIV-1)
[39] = target: HIV-1 Env of NIH-020_ZM197M.PB7 (HIV-1)
[40] = target: HIV-1 Env of pseudovirus NIH-038_Ce1172 H1 (HIV-1)
[41] = target: HIV-1 Env of isolate NIH-087_P1981 C5 3 (HIV-1)
[42] = target: HIV-1 Env of NIH-054_CNE53 (HIV-1)
[43] = target: HIV-1 Env of pseudovirus NIH-063_0330.v4.c3 (HIV-1)
[44] = target: HIV-1 Env of pseudovirus NIH-014_6244.13.B5.4567 (HIV-1)
[45] = target: HIV-1 Env of NIH-106_T250.4 (HIV-1)

In the case of PGZL1 (antibody), the neutralization IC50 [1] was 28 µg/mL, the IC80 neutralization [2] was over 50 µg/mL and the IC80 neutralization [3] was over 50 µg/mL. It also gave a neutralization IC50 [4] of 49 µg/mL, an IC80 neutralization [5] of 20.9 µg/mL and a neutralization IC50 [6] of 12.4 µg/mL. The IC80 neutralization [7] was over 50 µg/mL, the neutralization IC50 [8] was 40.5 µg/mL and the neutralization IC50 [9] was 5.4 µg/mL. For the same substance, the IC80 neutralization [10] was over 50 µg/mL, the neutralization IC50 [11] was 35.8 µg/mL and the neutralization IC50 [12] was 0.424 µg/mL. For the same substance, the IC80 neutralization [13] was over 50 µg/mL, the IC80 neutralization [14] was over 50 µg/mL and the IC80 neutralization [15] was over 50 µg/mL. It also gave an IC50 (µg/ml), TZM-bl cell neutralization assay, pseudovirus [16] of 13.9 µg/mL, a neutralization IC50 [17] of 1.54 µg/mL and a neutralization IC50 [18] of over 50 µg/mL. It also gave an IC80 neutralization [19] of 10.5 µg/mL, an IC80 neutralization [20] of 6.93 µg/mL and an IC80 neutralization [21] of over 50 µg/mL. For the same substance, the neutralization IC50 [22] was 13.9 µg/mL, the IC80 neutralization [23] was 0.485 µg/mL and the neutralization IC50 [24] was 15 µg/mL. The IC80 neutralization [25] was over 50 µg/mL, the neutralization IC50 [26] was over 50 µg/mL and the neutralization IC50 [27] was over 50 µg/mL. The IC80 neutralization [28] was 3.1 µg/mL, the neutralization IC50 [29] was 0.296 µg/mL and the neutralization IC50 [30] was 31.7 µg/mL. It also gave an IC80 neutralization [31] of over 50 µg/mL, a neutralization IC50 [32] of 2.42 µg/mL and an IC80 neutralization [33] of 0.263 µg/mL. For the same substance, the neutralization IC50 [34] was 27.2 µg/mL, the neutralization IC50 [35] was 8.37 µg/mL and the IC50 (µg/ml), TZM-bl cell neutralization assay, pseudovirus [36] was 2.4 µg/mL. For the same substance, the neutralization IC50 [37] was 24.6 µg/mL, the neutralization IC50 [38] was 48.8 µg/mL and the IC80 neutralization [39] was 7.66 µg/mL. It also gave a neutralization IC50 [40] of 0.948 µg/mL, an IC80 (µg/ml), TZM-bl pseudovirus neutralization [41] of 5.55 µg/mL and an IC80 neutralization [42] of 23.9 µg/mL. The neutralization IC50 [43] was 22.1 µg/mL, the neutralization IC50 [44] was 1.31 µg/mL and the IC80 neutralization [45] was over 50 µg/mL.
In the case of 4E10 (antibody), the neutralization IC50 [1] was 0.491 µg/mL, the IC80 neutralization [2] was 15.7 µg/mL and the IC80 neutralization [3] was 9.04 µg/mL. The neutralization IC50 [4] was 9.59 µg/mL, the IC80 neutralization [5] was 1.88 µg/mL and the neutralization IC50 [6] was 0.526 µg/mL. For the same substance, the IC80 neutralization [7] was 24.7 µg/mL, the neutralization IC50 [8] was 4.17 µg/mL and the neutralization IC50 [9] was 0.99 µg/mL. For the same substance, the IC80 neutralization [10] was 12.5 µg/mL, the neutralization IC50 [11] was 9.78 µg/mL and the neutralization IC50 [12] was 0.097 µg/mL. The IC80 neutralization [13] was 4.19 µg/mL, the IC80 neutralization [14] was 2.12 µg/mL and the IC80 neutralization [15] was over 50 µg/mL. For the same substance, the IC50 (µg/ml), TZM-bl cell neutralization assay, pseudovirus [16] was 2.58 µg/mL, the neutralization IC50 [17] was 0.248 µg/mL and the neutralization IC50 [18] was 0.227 µg/mL. For the same substance, the IC80 neutralization [19] was 0.647 µg/mL, the IC80 neutralization [20] was 1.36 µg/mL and the IC80 neutralization [21] was 6.08 µg/mL. It also gave a neutralization IC50 [22] of 0.756 µg/mL, an IC80 neutralization [23] of 0.089 µg/mL and a neutralization IC50 [24] of 0.561 µg/mL. For the same substance, the IC80 neutralization [25] was 13.3 µg/mL, the neutralization IC50 [26] was 15.9 µg/mL and the neutralization IC50 [27] was 20.3 µg/mL. It also gave an IC80 neutralization [28] of 0.557 µg/mL, a neutralization IC50 [29] of 0.133 µg/mL and a neutralization IC50 [30] of 1.74 µg/mL. The IC80 neutralization [31] was 5.77 µg/mL, the neutralization IC50 [32] was 0.383 µg/mL and the IC80 neutralization [33] was 0.137 µg/mL. The neutralization IC50 [34] was 2.87 µg/mL, the neutralization IC50 [35] was 0.322 µg/mL and the IC50 (µg/ml), TZM-bl cell neutralization assay, pseudovirus [36] was 0.915 µg/mL. The neutralization IC50 [37] was 1.34 µg/mL, the neutralization IC50 [38] was 2.47 µg/mL and the IC80 neutralization [39] was 1.08 µg/mL. The neutralization IC50 [40] was 8.81 µg/mL, the IC80 (µg/ml), TZM-bl pseudovirus neutralization [41] was 0.406 µg/mL and the IC80 neutralization [42] was 1.52 µg/mL. For the same substance, the neutralization IC50 [43] was 0.963 µg/mL, the neutralization IC50 [44] was 0.077 µg/mL and the IC80 neutralization [45] was 3.42 µg/mL.
Work on VRC01 (antibody) yielded a neutralization IC50 [1] of 0.126 µg/mL, an IC80 neutralization [2] of 1.49 µg/mL and an IC80 neutralization [3] of 0.188 µg/mL. For the same substance, the neutralization IC50 [4] was 0.192 µg/mL, the IC80 neutralization [5] was 0.573 µg/mL and the neutralization IC50 [6] was 0.219 µg/mL. It also gave an IC80 neutralization [7] of 0.068 µg/mL, a neutralization IC50 [8] of 0.593 µg/mL and a neutralization IC50 [9] of 0.166 µg/mL. For the same substance, the IC80 neutralization [10] was 0.595 µg/mL, the neutralization IC50 [11] was 0.604 µg/mL and the neutralization IC50 [12] was 0.968 µg/mL. For the same substance, the IC80 neutralization [13] was 10.1 µg/mL, the IC80 neutralization [14] was over 50 µg/mL and the IC80 neutralization [15] was 0.625 µg/mL. The IC50 (µg/ml), TZM-bl cell neutralization assay, pseudovirus [16] was 0.051 µg/mL, the neutralization IC50 [17] was 0.021 µg/mL and the neutralization IC50 [18] was 0.124 µg/mL. For the same substance, the IC80 neutralization [19] was 0.242 µg/mL, the IC80 neutralization [20] was 5.7 µg/mL and the IC80 neutralization [21] was 0.516 µg/mL. The neutralization IC50 [22] was over 50 µg/mL, the IC80 neutralization [23] was 0.081 µg/mL and the neutralization IC50 [24] was 0.014 µg/mL. It also gave an IC80 neutralization [25] of over 50 µg/mL, a neutralization IC50 [26] of 0.123 µg/mL and a neutralization IC50 [27] of 0.112 µg/mL. It also gave an IC80 neutralization [28] of 1.28 µg/mL, a neutralization IC50 [29] of 0.102 µg/mL and a neutralization IC50 [30] of 1.25 µg/mL. It also gave an IC80 neutralization [31] of 0.197 µg/mL, a neutralization IC50 [32] of 4.85 µg/mL and an IC80 neutralization [33] of 0.254 µg/mL. It also gave a neutralization IC50 [34] of 1.74 µg/mL, a neutralization IC50 [35] of 0.05 µg/mL and an IC50 (µg/ml), TZM-bl cell neutralization assay, pseudovirus [36] of 0.058 µg/mL. The neutralization IC50 [37] was 0.059 µg/mL, the neutralization IC50 [38] was 0.028 µg/mL and the IC80 neutralization [39] was 0.682 µg/mL. For the same substance, the neutralization IC50 [40] was over 50 µg/mL, the IC80 (µg/ml), TZM-bl pseudovirus neutralization [41] was 0.8 µg/mL and the IC80 neutralization [42] was 0.166 µg/mL. The neutralization IC50 [43] was 0.033 µg/mL, the neutralization IC50 [44] was 0.045 µg/mL and the IC80 neutralization [45] was over 50 µg/mL.

Reference: patent US20240124560A1
